Source: US20220289837A1, “Cystic Fibrosis Transmembrane Conductance Regulator Stabilizing Agents” (VIB VZW, priority 2019, published 2022)

Target: T1, 2PT-NBD1 (Homo sapiens, UniProt P13569, A534P/I539T/S492P/V470M)
T1 construct: 2PT-NBD1 mutants (residues 387-646 containing the mutations S492P, A534P, I539T); His6-SUMO (N, cleaved yes); made in house; host or cells: Escherichia coli BL21(DE3) pLysS
Experiment: NBD1 ELISA dose-response, nanobody binding to immobilized 2PT-NBD1
Settings: immobilized biotinylated 2PT-NBD1
Description: For dose-response assays, Nunc MaxiSorp 96-well plates (ThermoScientific), were coated with 5 μg/ml NeutrAvidin Biotin-Binding protein (ThermoScientific) overnight at 4° C. and blocked 2 h at room temperature (RT) with 2% milk in phosphate-buffered saline (PBS). Each new reagent addition was preceded by three washes with 200 μl of NBD1 buffer (20 mM HEPES pH 7.5, 150 mM NaCl, and 10% (w/v) glycerol, 10% (w/v) ethylene glycol, 2 mM ATP, 3 mM MgCl2). Then, biotinylated purified NBD1 proteins at 5 μg/ml were immobilized 30 min at RT followed by 1 h RT incubation with 100 μl various concentrations (0-20 μg/ml) of purified nanobodies. […] 50 μl of 1-Step UltraTMB-ELISA (ThermoScientific) was used as a substrate for the peroxidase and intensity of the reaction was proportional to absorbance measured at 450 nm with SynergyMx (BioTek) after addition of 50 μl H2SO4 at 1M.
Affinity constants (KD) and thermodynamic parameters from ITC experiments were determined using one-site binding model with MicroCal Origin 7.0 software (Origin Lab Corp.). […] DSC data were analyzed with the MicroCal Origin 7.0 software (Origin Lab Corp.), from which the unfolding temperature (Tm) was obtained.

T1 sequence (P13569 388-646 V470M/S492P/A534P/I539T): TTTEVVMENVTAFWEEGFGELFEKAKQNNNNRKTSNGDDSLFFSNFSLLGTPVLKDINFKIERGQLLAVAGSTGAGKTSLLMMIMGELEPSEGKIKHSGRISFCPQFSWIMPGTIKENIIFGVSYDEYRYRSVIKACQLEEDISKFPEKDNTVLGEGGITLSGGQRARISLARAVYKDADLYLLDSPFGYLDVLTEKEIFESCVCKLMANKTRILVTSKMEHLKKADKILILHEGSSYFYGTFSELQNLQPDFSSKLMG

B1: G3a: non-stabilizing nanobody, SEQ ID NO:50, recognizes the structurally diverse region of NBD1 (protein)
VHH: QVQLQESGGGLVQAGGSLRLSCTASGRAFSWYVMGWFRQAPGKEREFVATVSGNGSRRDYADSVKGRFTISRDNAKNTVYLQMNSLKPEDTAVYYCAASSTYYYTDPEKYDYWGQGTQVTVSS
modifications: G3a Nanobody
  EC50 of binding to 2PT-NBD1: weaker binding potency
